First the molecules themselves.
B1: VH4127 synthetic cyclic peptide (peptide)
chain: Propionyl-[dC]M[Thz]RLRG[Pen]-NH2
modifications: disulfide 1-8
B2: VH434 synthetic cyclic peptide (peptide)
peptide: Propionyl-CMPRLRGC-NH2
modifications: disulfide 1-8 (inferred)
notes: 8-residue truncation of VH411; source: synthetic peptide
B3: VH445 synthetic cyclic peptide (peptide)
peptide: Propionyl-[dC]MPRLRGC-NH2
modifications: disulfide 1-8
notes: printed cMPRLRGC, lower case c = (D)-Cys; also called VH0445; source: synthetic peptide

Three molecules from publication PMC5828360 (PLoS ONE, 2018) can be followed below.

Bridges are numbered along the chain shown (N, C = ends). [ ]: non-standard residue; d: D form. The star is where a group is joined. Pen = CC(C)(S)[C@H](N)C(=O)O; Thz = O=C(O)[C@@H]1CSCN1; Propionyl = CCC(=O)*

The term Kd denotes the concentration at which binding is half-saturated.

For the test, the target named is T1, recombinant mouse LDLR (His-tagged), extracellular domain (mouse, UniProt P35951 22-790).
T1 construct: mouse low-density lipoprotein receptor, extracellular domain; immobilised on a NiHC sensor chip; in the functional rows it stands for the endogenous LDLR of the mouse; also called mLDLR; murine LDLR; source: bought: Sino Biological
T1 sequence (P35951 22-790): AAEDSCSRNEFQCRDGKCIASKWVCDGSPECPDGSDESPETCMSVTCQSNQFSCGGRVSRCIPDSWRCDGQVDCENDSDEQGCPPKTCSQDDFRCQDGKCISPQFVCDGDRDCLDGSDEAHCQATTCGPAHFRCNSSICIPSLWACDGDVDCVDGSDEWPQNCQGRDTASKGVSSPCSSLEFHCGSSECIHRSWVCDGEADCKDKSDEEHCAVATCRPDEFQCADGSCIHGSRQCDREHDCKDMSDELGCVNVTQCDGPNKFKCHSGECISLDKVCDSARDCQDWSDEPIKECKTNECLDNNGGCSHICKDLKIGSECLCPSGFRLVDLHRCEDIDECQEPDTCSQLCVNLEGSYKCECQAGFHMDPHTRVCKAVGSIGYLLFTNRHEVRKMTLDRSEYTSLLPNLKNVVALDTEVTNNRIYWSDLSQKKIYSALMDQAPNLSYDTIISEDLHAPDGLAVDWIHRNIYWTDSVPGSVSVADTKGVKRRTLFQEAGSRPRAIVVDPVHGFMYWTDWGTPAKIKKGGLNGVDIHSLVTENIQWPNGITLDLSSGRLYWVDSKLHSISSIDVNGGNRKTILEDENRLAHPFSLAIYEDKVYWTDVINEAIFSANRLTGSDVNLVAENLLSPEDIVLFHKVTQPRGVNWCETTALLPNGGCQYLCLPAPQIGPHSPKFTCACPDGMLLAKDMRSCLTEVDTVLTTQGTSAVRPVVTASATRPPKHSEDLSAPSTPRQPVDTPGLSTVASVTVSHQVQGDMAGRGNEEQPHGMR
As to the kind of experiment: SPR; hLDLR or mLDLR (His-tagged) immobilised on a NiHC sensor chip at 35-60 fmol/mm^2; Biacore T200, 25°C; 50 mM HEPES-NaOH pH7.4, 150 mM NaCl, 0.005% Tween-20, 50μM EDTA; single-cycle kinetics; 1:1 Langmuir model. As to conditions: both partners purified. For orientation: SPR reads the build-up and loss of mass on a sensor chip optically.
Turning to B1, the Kd stood at 36 ± 1 nM. For the molecule B2, the Kd turned out to be 280 ± 33 nM. Next, B3: 233 ± 24 nM.
